The supplement of paper PMC7125110
± gives the standard error. For part of these data: Fewer inactive variants are shown than the library holds.

B1: glmS ribozyme (parent)
chain: AUAAAAGCGCCAGAACUACAGAAAUGUAGUUGACGAGGAGGAGGUUUAUCGAAUUUUCGGCGGAUGCCUCCAAA

Columns and labels:
Settings in all cases: with glucosamine-6-phosphate
glucosamine-6-phosphate [1] = variants of: B1; experiment: kcat; higher = faster cleavage; RNA array
In short: (§1)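 Barcoded ribozyme variants were transcribed in situ on sequenced MiSeq chips by E. coli RNA polymerase. At 37 °C, a hybridised Cy3 probe tracked them while glucosamine-6-phosphate (40 μM to 10 mM) in HEPES/KCl/Mg(OAc)2 buffer flowed in and tiles were imaged over ~14 h. Per-tile medians of signals normalised to baseline and to non-cleaving reference variants were fit to one- or two-exponential decays, giving kobs. kcat and KM came from weighted Michaelis–Menten fits across concentrations.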

glucosamine-6-phosphate [2] = variants of: B1; experiment: self-cleavage kobs at 160 uM GlcN6P; higher = faster cleavage; RNA array
In short: as §1

glucosamine-6-phosphate [3] = variants of: B1; experiment: self-cleavage kobs at 640 uM GlcN6P; higher = faster cleavage; RNA array
In short: as §1

glucosamine-6-phosphate [4] = variants of: B1; experiment: self-cleavage kobs at 2500 uM GlcN6P; higher = faster cleavage; RNA array
In short: as §1

glucosamine-6-phosphate [5] = variants of: B1; experiment: self-cleavage kobs at 10000 uM GlcN6P; higher = faster cleavage; RNA array
In short: as §1

glucosamine-6-phosphate [6] = variants of: B1; experiment: KM; higher = weaker cofactor use; RNA array
In short: as §1

glucosamine-6-phosphate [7] = variants of: B1; experiment: self-cleavage kobs at 40 uM GlcN6P; higher = faster cleavage; RNA array
In short: as §1

Row | Variant | kcat (glucosamine-6-phosphate [1]) [s⁻¹] | self-cleavage kobs at 160 uM GlcN6P (glucosamine-6-phosphate [2]) [s⁻¹] | self-cleavage kobs at 640 uM GlcN6P (glucosamine-6-phosphate [3]) [s⁻¹] | self-cleavage kobs at 2500 uM GlcN6P (glucosamine-6-phosphate [4]) [s⁻¹] | self-cleavage kobs at 10000 uM GlcN6P (glucosamine-6-phosphate [5]) [s⁻¹] | KM (glucosamine-6-phosphate [6]) [µM] | self-cleavage kobs at 40 uM GlcN6P (glucosamine-6-phosphate [7]) [s⁻¹]
1 | A52U U69G | 2.57e-05 ± 7.6e-06 | 4.23e-05 ± 1.1e-05 | 3.97e-05 ± 1e-05 | 2.11e-05 ± 7.8e-06 |  |  | 
2 | C11U U45C | 9.44e-05 ± 1.8e-05 |  |  | 6.5e-05 ± 1.3e-05 | 7.59e-05 ± 1e-05 |  | 
3 | G51U C70G | 3.09e-05 ± 1.2e-05 |  | 5.38e-05 ± 1.4e-05 | 4.11e-05 ± 1e-05 |  |  | 
4 | A42G U65G | 0.00591 ± 0.00097 | 0.000279 ± 7.4e-05 | 0.000708 ± 0.00015 | 0.00211 ± 0.00033 | 0.00436 ± 0.00084 | 4220 ± 930 | 5.66e-05 ± 1.2e-05
5 | A33G G38C | < 1e-05 | < 1e-05 |  |  |  |  | < 1e-05
6 | G37U C70A | 1.53e-05 ± 2e-06 |  |  |  |  |  | 
7 | G62A C70A | 4.15e-05 ± 2e-05 |  | 7.27e-05 ± 2.4e-05 |  |  |  | < 1e-05
8 | C34G C70U | < 1e-05 |  |  |  | < 1e-05 |  | 
9 | G51A G62U | < 1e-05 | < 1e-05 |  |  |  |  | 
10 | G32C C67U | 2.59e-05 ± 7.6e-07 |  |  |  | 2.39e-05 ± 5.6e-06 | 885 ± 190 | 
11 | U49A C71A | < 1e-05 |  |  |  |  |  | 
12 | A12U C16G G40C | 0.000662 ± 7.1e-05 |  | 9.91e-05 ± 3.2e-05 | 0.000322 ± 0.00011 | 0.000481 ± 9.8e-05 | 3490 ± 700 | 
13 | U46G U69G | 7.96e-05 ± 5.9e-06 | 7.35e-05 ± 1.7e-05 | 0.000111 ± 1.6e-05 | 7.44e-05 ± 1.1e-05 | 7.71e-05 ± 5.3e-06 |  | 5.51e-05 ± 9.4e-06
14 | U56G C68U | 0.00243 ± 0.00033 | 0.000217 ± 4.7e-05 | 0.000551 ± 9.7e-05 | 0.00206 ± 0.00046 | 0.00208 ± 0.00021 | 1660 ± 380 | 6.61e-05 ± 1.1e-05
15 | A14G U31C C71A | 0.00296 ± 0.00085 | 0.000251 ± 7.7e-05 |  | 0.00227 ± 0.00096 | 0.00241 ± 0.00085 | 1430 ± 590 | 0.000143 ± 6.1e-05
16 | G13U A14G | 0.00536 ± 0.0022 | 0.00019 ± 7.3e-05 | 0.00104 ± 0.00019 | 0.00171 ± 0.00049 | 0.00495 ± 0.00073 |  | 0.000124 ± 2e-05
17 | A42U U65G | 0.000343 ± 2.8e-05 |  | 5.7e-05 ± 1e-05 | 0.000165 ± 1.9e-05 | 0.000257 ± 2.8e-05 | 3030 ± 500 | 
18 | C8U U31A | < 1e-05 |  | < 1e-05 |  |  |  | 
